Earlier results on 1 substance are cited in PMC2683804.

Data set [1] concerns the target amyloid-β 1-40 1-40 (Homo sapiens) (UniProt P05067).
In data set [2] the target is amyloid-β 1-42 1-42 (Homo sapiens) (UniProt P05067).

On to “human serum albumin (from UniProt P02768)”, for which the Kd is 9.25 µM in data set [1] and 10.5 µM in data set [2].

For orientation: Kd means the free concentration of one partner at which half of the binding sites on the other are occupied at equilibrium, for simple one-to-one binding.
